Test results taken from patent US20210290676A1, “IMPROVING THE EFFICACY AND SAFETY OF ADOPTIVE CELLULAR THERAPIES” (University of Southern California, priority 2018, published 2021).

Experiment: Leukapheresis with and without mobilization and manufacturing of CAR-T/TCR-T cells from cancer patients
Format: in vivo, human
Details: mobilization prior to leukapheresis
Method: A study is conducted to compare the generation of cell therapy products from cancer patients who have received 2 or more cycles of prior chemotherapy. Patients with different types of different cancers (e.g., diffuse large B cell lymphoma, acute B-ALL, CLL, multiple myeloma, breast cancer, ovarian cancer, lung cancer etc.) are eligible. Leukapheresis products are collected from the subjects with and without mobilization with Perixafor (0.24 mg/kg subcutaneously daily on days 1-3). T cells are isolated and used for manufacturing of CAR-T and TCR-T cells using lentiviral mediated gene transduction as described in the preceding sections.

B1: G-CSF: cytokine, G-CSF (filgrastim, Amgen) (protein, chains of the INN, looked up)
chain: MTPLGPASSLPQSFLLKCLEQVRKIQGDGAALQEKLCATYKLCHPEELVLLGHSLGIPWAPLSSCPSQALQLAGCLSQLHSGLFLYQGLLQALEGISPELGPTLDTLQLDVADFATTIWQQMEELGMAPALQPTQGAMPAFASAFQRRAGGVLVASHLQSFLEVSYRVLRHLAQP
yield of leukapheresis product for generation of CAR-T cells: improve the yield
